± gives the standard deviation of the averaged measurements.

The text below walks through data of the supplement of paper PMC10724198.
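Further: PSI is a weighted mean of sequencing reads over stability bins, variants kept only with over 10 reads, mCherry proximal and sfGFP distal, peptide attached via GGGS linker.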

For the data set, the system named is Saccharomyces cerevisiae. Nature of the data set: protein stability index of tFT-peptide fusion (C-terminal peptide) (PSI (0-1 scale)); higher = more stable (slower turnover). The conditions noted are these: genetic background: wild type; temperature: 30 C. Here is the method: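 Multiplexed protein stability (MPS) profiling in S. cerevisiae. Random 12-aa peptides (tFT-X12 library) are fused to the C-terminus of a sfGFP-mCherry tandem fluorescent timer, after mCherry and a GGGS linker. Cells are FACS-sorted into 8 mCherry/sfGFP bins and deep-sequenced. The protein stability index (PSI) is the read-weighted bin average, scaled from 0 (unstable) to 1 (stable). Only peptides with >10 reads are reported; cells were grown at 30 °C in SC-His with glucose.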
GGGGGEWCLVRL displayed a protein stability index of 0.688 ± 0.027.
Take GGGGGGGGYLGA: the protein stability index was found to be 0.715 ± 0.027.
As to GGGGGGGWGAVG, the protein stability index came to 0.688 ± 0.0076.
Turning to GGGGGGLLDVGV, the protein stability index was 0.685 ± 0.027.
The result for GGGGGLVVFGWK reads 0.687 ± 0.007.
The result for GGGGGVRLVVSR reads 0.668 ± 0.027.
As for GGGGGVSGGGVF, the protein stability index was determined as 0.672 ± 0.063.
Turning to GGGGRGLLDVGV, the protein stability index is 0.689 ± 0.031.
Turning to GGGGRGVGRGWG, the protein stability index was determined as 0.675 ± 0.0046.
As to GGGGSFLVGLGL, the protein stability index was 0.647 ± 0.056.
In the case of GGGGSRWAGPRC it was 0.636 ± 0.031.
GGGGVVRAWGLR yielded a protein stability index of 0.738 ± 0.043.
For GGGLAPADQVGV, the protein stability index was 0.729 ± 0.043.
As to GGGLGAGWGVWG, the protein stability index is 0.68 ± 0.035.
For the sequence GGGLGGGGFRGG, the protein stability index was found to be 0.749 ± 0.033.
GGGLGGLGCFMV showed a protein stability index of 0.698 ± 0.036.
GGGLSWARRSPS came in with a protein stability index of 0.683 ± 0.069.
GGGLVLSGWCVW came in with a protein stability index of 0.751 ± 0.026.
The result for GGGREGEIGGGG reads 0.5705 ± 0.0013; that for GGGRGGFRVVVG, 0.744 ± 0.042.
With GGGRGGSTPALG, the protein stability index amounted to 0.667 ± 0.03.
In the case of GGGRGWAGENTR it was 0.704 ± 0.028; in that of GGGRPGLRALSY, 0.747 ± 0.034; in that of GGGSGGEAVRVW, 0.645 ± 0.026.
In the case of GGGSGGRRLVRF it was 0.726 ± 0.023; in that of GGGSHASERAAR, 0.723 ± 0.022; in that of GGGSIAPRSVGT, 0.7649 ± 0.0021.
Regarding GGGSVGMWGWWV, the protein stability index was determined as 0.625 ± 0.075.
GGGTGALGTVRW returned a protein stability index of 0.765 ± 0.055.
GGGVGLRGGWDG displayed a protein stability index of 0.71 ± 0.044.
GGGVRGGVLVLG returned a protein stability index of 0.51 ± 0.03.
In turn, GGGVSSEWSGCR showed a protein stability index of 0.665 ± 0.0087.
In the case of GGGVWGVGRGIL, the protein stability index came to 0.6 ± 0.013.
The result for GGGWGGGGSSCA reads 0.659 ± 0.055; that for GGGWGSMDLRDR, 0.712 ± 0.016; that for GGGWSRGGVGDR, 0.672 ± 0.027.
Turning to GGGWSRRGVGDR, the protein stability index is 0.673 ± 0.028.
On to GGIRGEGEVGKR, for which the protein stability index is 0.69 ± 0.021.
The result for GGKLNRAGRATG reads 0.697 ± 0.088.
Consider GGLACTLAAFYL, for which the protein stability index worked out at 0.733 ± 0.047.
The sequence GGLGFVGGVRVQ gave a protein stability index of 0.6705 ± 0.00086.
For the sequence GGLICRHGVGRG, the protein stability index was determined as 0.705 ± 0.024.
The result for GGLRRMGVRPCA reads 0.715 ± 0.21; that for GGLSGGMRIEDS, 0.686 ± 0.028.
The result for GGLVTSGGWRCA reads 0.71 ± 0.065; that for GGLWLCFVPEVM, 0.563 ± 0.0077; that for GGMAWGPVCGAG, 0.6906 ± 0.0018.
The result for GGNRRIKEKSRL reads 0.785 ± 0.016; that for GGPESMDILRFR, 0.62 ± 0.069.
Turning to GGPPSPPFFDAV, the protein stability index was 0.741 ± 0.081.
With GGPTCSSSCDPV, the protein stability index was determined as 0.67 ± 0.038.
As to GGRCGEGLVREG, the protein stability index was 0.702 ± 0.021.
In the case of GGRGGEGRGGSG it was 0.658 ± 0.018; in that of GGRGPSAVGSGV, 0.74 ± 0.085.
The sequence GGRGRGMWGIFG had a protein stability index of 0.681 ± 0.0096.
In the case of GGRGRWEMVGRT, the protein stability index worked out at 0.7 ± 0.021.
In the case of GGRGSGLVGCSL it was 0.6 ± 0.065; in that of GGRGVVVVQGAG, 0.6978 ± 0.0013.
In turn, GGRGWRSGTEGE gave a protein stability index of 0.675 ± 0.013.
GGRGWWRGTGSG gave a protein stability index of 0.719 ± 0.056.
Regarding GGRIRLLTYFGR, the protein stability index turned out to be 0.601 ± 0.042.
GGRLGRGVVRGW yielded a protein stability index of 0.704 ± 0.011.
GGRRVWAGRTGV returned a protein stability index of 0.734 ± 0.077.
Consider GGRSGGWCGCWG, for which the protein stability index stood at 0.711 ± 0.032.
As for GGRVAGSMGGGG, the protein stability index was 0.719 ± 0.056.
GGRVLKFLLGRL registered a protein stability index of 0.668 ± 0.15.
On to GGRVWGAVGAGP, for which the protein stability index was determined as 0.627 ± 0.082.
Consider GGSALGCLCRWM, for which the protein stability index was found to be 0.823 ± 0.029.
Regarding GGSEEGGKAAKT, the protein stability index was found to be 0.652 ± 0.015.
Sequence GGSGGAVEERGG registered a protein stability index of 0.6573 ± 0.0013.
GGSRGVGASEEC registered a protein stability index of 0.6515 ± 0.005.
In the case of GGSRRGRRLLTQ, the protein stability index was 0.699 ± 0.037.
GGTGWVGEMGGR yielded a protein stability index of 0.796 ± 0.069.
Sequence GGTHCRVCCVLF gave a protein stability index of 0.659 ± 0.02.
The sequence GGVATQARQTCN registered a protein stability index of 0.742 ± 0.17.
In turn, GGVFTHLEKAVD registered a protein stability index of 0.649 ± 0.046.
The result for GGVGAFAARRFA reads 0.634 ± 0.012.
